Results: a protein production outcome set (Wang et al. 2014)

Experiment: label from the status in PepcDB records

Sequence | protein production
MSKMRFFALQELSNRKPLEITTPSNKLSDYYASHVFDRKKMQEYLPKEAYKAVVDATEKGTPISREMADLIANGMKSWAKSLNVTHYTHWFQPLTDGTAEKHDGFIEFGEDGEVIERFSGKLLIQQEPDASSFPNGGIRNTFEARGYTAWDGSSPAFVVDTTLCIPTIFISYTGEALDYKTPLLKALAAVDKAATEVCQLFDKNITRVFTNLGWEQEYFLVDTSLYNARPDLRLTGRTLMGHSSAKDQQLEDHYFGSIPPRVTAFMKELEIECHKLGIPVKTRHNEVAPNQFELAPIFENCNLANDHNQLVMDLMKRIARKHHFAVLFHEKPYNGVNGSGKHNNWSLCTDTGINLFAPGKNPKGNMLFLTFLVNVLMMVHKNQDLLRASIMSAGNSHRLGANEAPPAILSIFLGSQLSATLDEIVRQVTNSKMTPEEKTTLKLGIGRIPEILLDTTDRNRTSPFAFTGNRFEFRAAGSSANCAAAMIAINAAMANQLNEFKASVDKLMEEGIGKDEAIFRILKENIIASELIRFEGDGYSEEWKQEAARRGLTNICHVPEALMHYMDNQSRAVLIGERIFNETELACRLEVELEKYTMKVQIESRVLGDLAINHIVPIAVSYQNRLLENLCRMKEIFSEEEYEVMSADRKELIKEISHRVSAIKVLVRDMTEARKVANHKENFKEKAFAYEETVRPYLESIRDHIDHLEMEIDDEIWPLPKYRELLFTK | not failed
MADMTKQAFMRLSNPKFIMLFLILWVSLLLSSNHTLSQLADYIFFTFLGTLGAIFANSTGAGGGVVFIPMFTQLNFTEQQSIATSFAIQCFGMTAGAVTWWHHYRTEKTDLRLWQGFKRIICVTTIASIIGLNAVFFYQVNSPATLHTSFSWFSLLLGFFIVLTIYLLQPHRERSQLYYVDYIFLILIGLFGGAVTAWLSVGVGELLVIYLLLRHFDISMAVAAAVIVSAISVWTAIAQVNSDVYWQVVLFAGPGAVLGGIFAKTLVTHLSAIKLKLFFACWLLLSGVVGLI | failed
RGNLGQSQKVLIEFVSANPTGPLHVGHGRGAAFGATLGNVLKAAGYDVTLEYYVNDAGRQMNILAVSVWLRYLELAGEPIVFPANGYKGQYVYEIAQEIWSEQGNQFVHPWISVVENLPADEPEGGDKETYIDAIIARAQSLLGKDGFANFHQHALKTVLDDIKDDLQAFGVRFDSWFSEQSLFEDGSIEKGIQALKDRGHTYEREGALWFRATDFGDEKDRVLVRANGQTTYFASDVAYHWNKYDRGFDRVIDIFGADHHGYVTRIKTAVKALGHDESALDVILVQFAILYRGGDRVQMSTRSGSFVTLRELREEVGNDAARYFYVARKPEQHMDFDLDLAKSESSDNPVYYIQYAHARICSVLRQLKERGLKWDKDMGL | failed
MKTNSEELTVFVQVVESGSFSRAAEQLEMANSAVSRIVKRLEEKLGVNLLNRTTRQLNLTEEGAQYFRRAQRILQEMAAAETEMLAVHEVPQGVLRVDSAMPMVLHLLAPLAAKFNERYPHIRLSLVSSEGYINLIERKVDIALRAGELDDSGLRARHLFDSHFRVVASPEYLAKHGTPQSAEDLANHQCLGFTEPGSLNTWAVLDAQGNPYKISPHFTASSGEILRSLCLSSCGIACLSDFLVDNDITEGKLIPLFAEQTSNKTHPFNAVYYSDKAVNLRLRVFLDFLVKELGKNMNRTNTK | not failed
MTMKKSEITVALAGNANVGKSVIFNQLTGSNQIVGNWPGKTVERAEGYLKFQGRDIHIIDLPGIYSFSTYSMEEIVSRDFIINEGPDVVINVLDASVLERNLFFTLQLMEMEVPMVICINQVDMARQKGITIDDEKLEKVLGVPVVSTVAVKGRGLQELLRKTVEVADKKTLPRIIEYGEEIETRIGKLMDALPEIPEGYSARWVAIKLLENDPQITAMMPEDVRKLASELAAEIESIHGEPAFSVITSERYAISSMIAAGAQRQEEIKTSLSERLDGFLTHPVYGYISSVLVVGGLLLWTFVVGEFLSDTLTGIFGFFQPVDPKFSGSIESIIWNGAFGGIVAGLTLVIPFVIPFYLMLSYIENSGLLTRVAFMMDAFMRKIGLHGKALIPLILGYGCSVPAIDSTRILETHRERLLAAFAISFAPCAARTILILGLVALFVNVWWAIGLYALDLLIIFIMGKVALKALPGETTGLIMEMHSLKMPSFRVIARQTWTRTRSLIYLVFPIYIIGSALIQLLYALGWLNPISAFMAPLTVGWLKLPVFAGILLILGAVRKEFILLGLVSLVGTNIGAALTAPQILVLTLVGMLYFPCLSTIAILAREFSWRSTSIITLANLGTALFLGGLFARILPLIF | failed
MEDETLGFFKKTSSSHARLNVPALVQVAALAIIMIRGLDVLMIFNTLGVRGIGEFIHRSVQTWSLTLVFLSSLVLVFIEIWCAFSLVKGRRWARWLYLLTQITAASYLWAASLGYGYPELFSIPGESKREIFHSLMLQKLPDMLILMLLFVPSTSRRFFQLQ | failed
MNSVYFLNVSEALATPQDKLHTVRLFGTVAADGLTMLDGAPGVRFRLEDKDNTSKTVWVLYKGAVPDTFKPGVEVIIEGGLAPGEDTFKARTLMTKCPLEHHHHHH | failed
MKKPKFLSLQEDDTFEKMRQSRLQKNKRKRDSGLNVFEEVVKDLTYGYMKIGDGDEIYGKHRKKKRVSKAKELEMAMTLEALKKDQEKGDIVAKNHSWQAAISRAAGIKIHDDPKRLKKRIHKETKMREKNTEKWKERVDVQQKFRAEKQQKRSENVIDRIQQKKMRKIAKREKKLLRPGY | failed
LPAGLYFVGTPIGSARDITLRALDVLASAEVIAAEDTRSLRHLLDIHGVPLDGRRVLAYHDHSGAGAQARLLEALAEGKSVAYASEAGMPLIADPGFELSRAAAEAGHMVTC | not failed
MSAARQGVAQARRIVVKVGSSSLTTAAGGLDADRVDALVDVLAKSRSGGEKEIVLVSSGAIAAGLAPLGLRRRPKDLARQQAAASVGQGLLVARYTASCARHGIRVGQVLLTSDDTSRRAHHRNASRTLDKLLAMGALPVVNENDTVATDEIRFGDNDRLAALVAHLVRADLLVLLSDVDGVYDGDPSKPGTSRVAQVHGPQDLAHVEIGSAGRAGVGTGGMVTKIEAARIAAAAGIPVVLTSAVHAADALAGRDTGTYFHPTGKRSADRLLWLQHASTPQGALTLDDGAVRAVVERRKSLLPAGIAAVEGEFTAGDPVELRDSEGRAVARGLVSFDAKEIPQLLGRSTRELARELGPAYEREVVHRDDLVLLQP | failed
MPRMEALFNTVVPVALVVLSGYLLGRQLEMDLSTLSRLTLYALVPALILDSMYRAEYTLEGVWGLVLGFSLTYALLFLLVQGAGKLFGLSRETTKTLLVCGLFPNSGNMGLSLVYFALGEEGLRRAVVYFLLSSALMFGLGPAFIRGGSLKEGLLFTLRLPLFYALFLGLLLKALGLSLPFRLEEGVRLMGQAAIPVLLLTLGMQMGKTRFHLGPFEGAASALRLLLAPLVAYGVGALLGLPRLEHQVLVLQSATPVAVNAFLLTREFGGDALRVARSVVVSTFLAFLTVPLVLYLLGVR | failed
MIESAVGKAAYSTAAFLIKSLPVVVIAIYAVSYSIKKGYLERFALFLQPALRKFGVSEFAVISFATCFVSPTASYSMLSQAWREKKVDDREVIAISFLNSFPSVFSHLYAYFIPFVIPVLGFAGVVYTAVRFAVAAIKSLIGLLLSRSRKNSDTSAPELSPLSVSQNVVRIGAVMAATYFIVSLLSQLGVFDLMAESLKFLPFRAEAVTIAIVEFFNIRSAVVTAASFIDAGLEWKWAVIGLILGNVISFSTRSVKHSLPMHLSLFGGFGVKIVLLNSIVTLILDIFFVVLLLLV | failed
MILQDARIDVPYTVVSINLPEDSVRHLSNLGLKVGSRLELISKTKSSAIVMLKSSRLAFDDSILSKIDVSESQETVETLPLSELEVGQFAYIDNIFAVNEAKRRLMDMGLTRHTKIYLRKVAPLGDPIEISLRGYELTLRKSEAQMISVVKIDNQEEKLEHHHHHH | not failed
MEDGKQAINEGSNDASPDLDVNGTILMNNEDFSQWSVDDVITWCISTLEVEETDPLCQRLRENDIVGDLLPELCLQDCQDLCDGDLNKAIKFKILINKMRDSKLEWKDDKTQEDMITVLKNLYTTTSAKLQEFQSQYTRLRMDVLDVMKTSSSSSPINTHGVSTTVPSSNNTIIPSSDGVSLSQTDYFDTVHNRQSPSRRESPVTVFRQPSLSHSKSLHKDSKNKVPQISTNQSHPSAVSTANTPGPSPNEALKQLRASKEDSCERILKNAMKRHNLADQDWRQYVLVICYGDQERLLELNEKPVIIFKNLKQQGLHPAIMLRRRGDFEEVAMMNGSDNVTPGGRL | failed
